# Read-outs that look alike come from different tables or passages of the source.
# Tests used:
# C1q [1] = test: SPR (BIAcore): 2B6 antibody captured on soluble CD32B (2bLAvi) on a CM-5 chip, C1q injected in a dilution series
# C1q [2] = test: SPR (BIAcore): 2B6 antibody captured on soluble CD32B (2bLAvi) on a CM-5 chip, C1q injected at 0.8-26 nM
# [3] = biological target: soluble monomeric FcγRIIIA-linker-AVITAG (158V), biotinylated (human) (UniProt P08637); test: SPR
# Target sequence in this assay (P08637 17-203 F176V limits assumed, form in doubt): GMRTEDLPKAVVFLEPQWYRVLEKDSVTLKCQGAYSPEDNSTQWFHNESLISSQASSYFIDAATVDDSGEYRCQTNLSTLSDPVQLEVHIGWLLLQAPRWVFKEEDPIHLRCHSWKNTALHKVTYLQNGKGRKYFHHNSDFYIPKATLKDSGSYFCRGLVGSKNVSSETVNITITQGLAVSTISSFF
# [4] = biological target: soluble monomeric FcγRIIIA-linker-AVITAG (158V), biotinylated (human) (UniProt P08637); test: ELISA
# [5] = biological target: FcγRIIB-Fc fusion protein (soluble dimeric FcγRIIB) (human) (UniProt P31994); test: ELISA
# Chain of FcγRIIB-Fc fusion protein (soluble dimeric FcγRIIB) (human) (P31994 43-217): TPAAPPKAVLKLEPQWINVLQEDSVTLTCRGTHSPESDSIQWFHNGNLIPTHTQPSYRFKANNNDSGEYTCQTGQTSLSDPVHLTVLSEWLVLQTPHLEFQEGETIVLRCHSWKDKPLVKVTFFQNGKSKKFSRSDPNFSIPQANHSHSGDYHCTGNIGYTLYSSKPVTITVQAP
# [6] = biological target: FcγRIIB-Fc fusion protein (soluble dimeric FcγRIIB) (human) (UniProt P31994); test: BIAcore, separate fits at two concentrations of FcγRIIB-Fc, average (Table 18 prints 0.085)
# [7] = biological target: FcγRIIB-Fc fusion protein (soluble dimeric FcγRIIB) (human) (UniProt P31994); test: SPR
# [8] = biological target: FcγRIIB-Fc fusion protein (soluble dimeric FcγRIIB) (human) (UniProt P31994); test: SPR; remark: listed apart in the source
# [9] = biological target: yeast-displayed wild type CH1-CH3 Fc fusion (pYD-CH1) (human) [IgG part: P01857]; test: FACS titration on yeast, MFI, nonlinear regression
# monomeric human IgG = test: ELISA: plate coated with human IgG, receptor titrated, detection with DJ130c and anti-mouse peroxidase
# Chain of C1q (P02745 23-245, chain 1 of 3): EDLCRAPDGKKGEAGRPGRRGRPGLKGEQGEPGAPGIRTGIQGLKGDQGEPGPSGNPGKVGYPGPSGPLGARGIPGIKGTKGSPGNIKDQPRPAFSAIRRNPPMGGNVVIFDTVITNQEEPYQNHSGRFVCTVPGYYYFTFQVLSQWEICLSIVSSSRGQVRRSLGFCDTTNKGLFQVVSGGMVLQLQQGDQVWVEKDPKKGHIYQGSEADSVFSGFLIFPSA
# Chain of C1q (P02746 28-253, chain 2 of 3, further chain): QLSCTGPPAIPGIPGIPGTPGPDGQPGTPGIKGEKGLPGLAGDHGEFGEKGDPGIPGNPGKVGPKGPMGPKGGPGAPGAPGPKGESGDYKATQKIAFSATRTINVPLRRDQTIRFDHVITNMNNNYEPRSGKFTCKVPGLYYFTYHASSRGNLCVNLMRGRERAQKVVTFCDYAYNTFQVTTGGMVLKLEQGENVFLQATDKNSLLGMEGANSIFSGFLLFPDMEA
# Chain of C1q (P02747 29-245, chain 3 of 3, further chain): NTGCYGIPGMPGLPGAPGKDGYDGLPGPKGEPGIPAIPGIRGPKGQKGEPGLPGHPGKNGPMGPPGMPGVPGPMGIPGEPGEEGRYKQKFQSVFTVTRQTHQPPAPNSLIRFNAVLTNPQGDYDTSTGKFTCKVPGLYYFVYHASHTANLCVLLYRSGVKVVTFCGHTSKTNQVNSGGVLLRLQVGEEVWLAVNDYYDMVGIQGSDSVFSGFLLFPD
substance,measurement,setting,value
"2B6 (lower panel of FIG. 36B, Fc region not labelled) (antibody)",Kd,C1q [1],7 nM
same,koff,C1q [1],0.06 s⁻¹
"2B6 (upper panel of FIG. 36B, Fc region not labelled) (antibody)",koff,C1q [2],0.13 s⁻¹
"ch4-4-20 K392T, P396L (from UniProt P01857 1-330) (antibody)",Kd,[3],84 nM
"ch4-4-20 S415I, L251F (antibody)",fold vs wt,[4],0.5 x increase
same,fold vs wt,[5],0.75 x increase
"chimeric 4-4-20 anti-fluorescein antibody, wild type Fc",koff,[6],0.0847 s⁻¹
same,Kd,[3],319 nM
same,kon,[3],600000 M⁻¹ s⁻¹
same,Kd,[7],94 nM
same,koff,[7],0.094 s⁻¹
same,Kd,[8],61.4 nM
same,koff,[8],0.085 s⁻¹
same,"ELISA, OD",[4],0.5 OD
same,"ELISA, OD",[5],0.4 OD
soluble FcγRIIIA tetrameric complex (from UniProt P08637 1-203) (receptor),Kd,[9],6 nM
same,EC50 (read off the curve),monomeric human IgG,1 µg/mL
